How the values were obtained:
GFP-Caprin-1(356-386) = GFP-Caprin-1(356-386) (UniProt Q14444); test: ITC; details: 25°C, 150 mM NaCl, 10 mM MgCl2
GFP-USP10(1-28) = GFP-USP10(1-28) (UniProt Q14694); test: ITC; details: 25°C, 150 mM NaCl, 10 mM MgCl2

KD (GFP-Caprin-1(356-386); pH 5.6): 1.4 μM (1.1 / 1.7)
KD (GFP-Caprin-1(356-386); pH 7.4): 4 ± 2 µM
KD (GFP-USP10(1-28); pH 5.6): 0.5 μM (0.3 / 0.7)
KD (GFP-USP10(1-28); pH 7.4): 1.5 ± 0.5 µM
Substance: G3BP1 NTF2-like domain (G3BP1-NTF2)
